Experimental data: the RNAGym collection of RNA variant scans (doi:10.7554/elife.90254)

B1: LINE1-full (parent)
chain: UACGUAGGUGGUUUUCCCCUGAUAGUGCUAAGGGGGCCUGGAAGUUUGGACUGGGCAGAGCUCAACACAGCGUGGCAAAGUGGCUGUGGCUAGACUGCCUCUCUGGAUUCCUCGUCACUCAGCAGGGCAUCUCUGAGAGAAAUGCC

Variants of: B1
Test: self-cleavage, relative activity (ratio to wild type); higher = more cleavage; in vitro, sequencing; the parent is a self-cleaving ribozyme

Variant	self-cleavage
UACGUAGGUGGUUUUCCCCUGAUAGUGCUAAGGGGGCCUGGAAGUUUGGACUGGGCAGAGCUCAACACAGCGUGGCAAAGUGGCUGUGGCUAGACUGCCCCUCUGGAUUCCUCGUCACUCAGCAGGGCAUCUCUGAGAGAAAUGUC [U100C C145U]	2.29
CACGUAGGUGGAUUUCCCCUGAUAGUGCUAAGGGGGCCUGGAAGUUUGGACUGGGCAGAGCUCAACACAGCGUGGCAAAGUGGCUGUGGCUAGACUGCCUCUCUGGAUUCCUCGUCACUCAGCAGGGCAUCUCUGAGAGAAAUGCC [U1C U12A]	0.95
UACGUAGGUGGUUUUCCCCUGAUAGUGCUAAGGGGGCCUGGAAGUUUGGACUGGGCAGGGCUCAACACAGCGUGGCAAAAUGGCUGUGGCUAGACUGCCUCUCUGGAUUCCUCGUCACUCAGCAGGGCAUCUCUGAGAGAAAUGCC [A59G G80A]	0.08
UACGUAGGUGGUUUUCCCCUGAUAGUGCUAAGGGGGCCUGGAAGUUUGGACUGGGCAGGGCUCAACACAGCGUGGCAAAGUGGCUGUGGCUAGACUGCCUCUCUGGAAUCCUCGUCACUCAGCAGGGCAUCUCUGAGAGAAAUGCC [A59G U108A]	0.11
UACGUUGGUGGUUUUCCCCUGAUAGUGCUAAGGGGGCCUGGAUGUUUGGACUGGGCAGAGCUCAACACAGCGUGGCAAAGUGGCUGUGGCUAGACUGCCUCUCUGGAUUCCUCGUCACUCAGCAGGGCAUCUCUGAGAGAAAUGCC [A6U A43U]	0.89
UACGUAGGUGGUUUUCCCCUGAUAGUGCUAAGGGGGCCUGGAAGUUUGGACUGGGCAGAGCUUAACACAGCGUGGCAAAGCGGCUGUGGCUAGACUGCCUCUCUGGAUUCCUCGUCACUCAGCAGGGCAUCUCUGAGAGAAAUGCC [C63U U81C]	0.4
UACGUAGGUGGUUUUCCCCUGAUAGUGCUAAGGGGGCCUGGAUGUUUGGACUGGGCAGAGCUCAACACGGCGUGGCAAAGUGGCUGUGGCUAGACUGCCUCUCUGGAUUCCUCGUCACUCAGCAGGGCAUCUCUGAGAGAAAUGCC [A43U A69G]	0.59
UACAUAGGUGGUUUUCCCCUGAUAGUGCUAAGGGGGCCUGGAAGUUUGGACUGGGCAGGGCUCAACACAGCGUGGCAAAGUGGCUGUGGCUAGACUGCCUCUCUGGAUUCCUCGUCACUCAGCAGGGCAUCUCUGAGAGAAAUGCC [G4A A59G]	0.12
UACGUAGGUGGUUCUCCCCUGAUAGUGCUAAGGGGGCCUGGAAGUUUGGAUUGGGCAGAGCUCAACACAGCGUGGCAAAGUGGCUGUGGCUAGACUGCCUCUCUGGAUUCCUCGUCACUCAGCAGGGCAUCUCUGAGAGAAAUGCC [U14C C51U]	0.71
UACGAAGGUGGUUUUCCCCUGAUAGUGCUAAGGGGGCCUGGAAGUUUGGACUGGGCAGAGCUCAACACAGCGUGGCAAAGUGGCUGUGGCUAGACUGCCUCUCUGGAUUCCUCGUCACUCAGCAGGGCAUCUCUGAGAGGAAUGCC [U5A A140G]	0.88
UACGUAGGUGGUUUUCCCCUGAUAGUGCUAAGGGGGCCUGGACGUUUGGACUGGGCAGAGCUCAACACAGCGUGGCAAAGUGGCUGUGGCUAGACUGCCUCUCUGGAUUCCUAGUCACUCAGCAGGGCAUCUCUGAGAGAAAUGCC [A43C C113A]	1.1
UACGUAGGUGGUUUUCCCCUGAUAGUGCUAAGGGGGCCUGGAAGUUAGGACUGGGCAGAGCUCAACACAGCGUGGCAAAGUGGCUGUGGCUAGACUGCCUCUCUGGAUUCCUCGUCACUCAGCAGGGCAUCUCUGGGAGAAAUGCC [U47A A136G]	1.52
UACGUAGGUGGUUUUCCCCUGAUAGUGCUAAGGGGGCCUGGAAGUUUGGACUGGGCAGAGCUCAGCACAGCGUGGCAAAGUGGCUGUGGCUAGACUGCCUCUCUGGAUUCCUCGUCACUCAGCAGGGCAUCUCUGAGAGACAUGCC [A65G A141C]	0.38
UACGUAGGUGGUUUUCCCCUGAUAGUGCUAAGGGGGCCUGGAAGUUUGGACUGGGCAGGGCUCAACACAGCGUGGCAAAGUGGCUGUGGCUAGACUGCCUCUCUGGAUUCCUCGUCACUCAGCAGGGCAUCUCUAAGAGAAAUGCC [A59G G135A]	0.08
UACGUAGGUGGUUUUCCCCUGAUAGUGCUAAGGGGGCCUGGAAGUUUGGACUGGGCAGAGCUCAACACAGCGUGGCAAAGUGGCUGUGGCUAGACUGCCUCUCUGGAUUCCACGUCACUCGGCAGGGCAUCUCUGAGAGAAAUGCC [U112A A121G]	1.82
UACGUAGGUGGUUUUCCCCUGAUAGUGCUAAGGGGGCCUGGAUGUUUGGACUGGGCAGAGCUCAACACAGCGUGGCAAAGUGGCUGUGGCUAGACUGCCUCUCUGGAAUCCUCGUCACUCAGCAGGGCAUCUCUGAGAGAAAUGCC [A43U U108A]	1.46
UACGUAGGUGGUUUCCCCCUGAUAGUGCUAAGGGGGCCUGGAAGUUUGGACUGGGCAGAGCUCAACACAGCGUGGCAAAGUGGCUGUGGCUAGUCUGCCUCUCUGGAUUCCUCGUCACUCAGCAGGGCAUCUCUGAGAGAAAUGCC [U15C A94U]	0.67
AAUGUAGGUGGUUUUCCCCUGAUAGUGCUAAGGGGGCCUGGAAGUUUGGACUGGGCAGAGCUCAACACAGCGUGGCAAAGUGGCUGUGGCUAGACUGCCUCUCUGGAUUCCUCGUCACUCAGCAGGGCAUCUCUGAGAGAAAUGCC [U1A C3U]	0
UACGUAGGUGGUUUUCCCCUGAUAGUGCUAAGGGGGCCUGGAAGUUUGGACUGGGCAGAGCUCAACACAGCGUGGCAGAGUGGCUGUGGCUAGACUGCCUCUCUGGAUUCCUCGUCACUCAGCAGGGCAUCUCUGAGAGAAAUGUC [A78G C145U]	1.28
GACGUAGGUGGCUUUCCCCUGAUAGUGCUAAGGGGGCCUGGAAGUUUGGACUGGGCAGAGCUCAACACAGCGUGGCAAAGUGGCUGUGGCUAGACUGCCUCUCUGGAUUCCUCGUCACUCAGCAGGGCAUCUCUGAGAGAAAUGCC [U1G U12C]	0.64
